From patent US20210261677A1 (ORICELL THERAPEUTICS, published 2021)
Residue numbers refer to the chain shown, from its start. Like-named read-outs stand apart in the source and are kept apart here. Values belong to the binder of their own block, whether it stands above or below them.

How the values were obtained:
[1] = molecular target: T1, recombinant human CD137-His protein (Origincell Therapeutics Co., Ltd.) (human, UniProt Q07011 24-186, limits assumed); assay: BLI (Octet RED384), antibody on AHC sensor, CD137-His in solution
T1 construct: also called Human 4-1BB-His; not shown: His tag
Procedure: (§1) The antigen-antibody binding kinetics were analyzed by the biofilm interference (BLI) technology, using a molecular interaction analyzer (Octet RED384, purchased from Pall ForteBio Analytics Co., Ltd.) and using a PBS buffer containing 0.1% BSA and 0.02% Tween 20. […] The AHC sensor was regenerated by glycine pulses and then reused. The obtained results would be analyzed by Octet Data Analysis 9.0 software (Pall ForteBio Analytics Co., Ltd.) to give the KD, Kₒₙ (1/Ms) and Koff (1/s).

[2] = molecular target: T2, mouse PD-L1 on CHO cells that stably expressed mouse PD-L1 (mouse, UniProt Q9EP73 19-290); assay: flow cytometry competition: biotin-labelled mouse PD-1-Fc at a subsaturated concentration on CHO cells stably expressing mouse PD-L1, antibody titrated, streptavidin R-PE detection
T2 construct: whole, on cells; also called CHO cells expressing mouse PD-L1
Procedure: (§2) After cell washing, Streptavidin R-PE Conjugate (life technology, SA10041) was added and incubated (4° C., 30 min). After cell washing, the fluorescence intensity was detected by a flow cytometer (Intellicyt iQue Screener).

[3] = molecular target: T3, recombinant human PD-L1-His protein (Origincell Therapeutics Co., Ltd.) (human, UniProt Q9NZQ7 19-238, limits assumed); assay: BLI (Octet RED384), antibody on AHC sensor, PD-L1-His in solution
T3 construct: not shown: His tag
Procedure: as §1

[4] = molecular target: T4, human PD-L1 on cells (CHO cells that stably expressed human PD-L1; MDA-MB-231 cells) (human, UniProt Q9NZQ7 19-290); assay: flow cytometry on MDA-MB-231 cells (human PD-L1), anti-human IgG-Fc DyLight 650 detection
T4 construct: whole, on cells; Stably expressed on CHO cells; also called CHO cells expressing human PD-L1
Procedure: Human breast cell strain MDA-MB-231 (Shanghai Chinese Academy of Sciences Cell Library) highly expresses the human PD-L1 molecule. […] After cell washing, Goat F(ab′)₂ Anti-Human IgG-Fc (DyLight 650) (ab98593, abcam) was added and incubated at 4° C. for 30 min. After cell washing, the fluorescence intensity was detected by a flow cytometer (Intellicyt iQue Screener).

[5] = molecular target: T4, human PD-L1 on cells (CHO cells that …); assay: flow cytometry competition: biotin-labelled human PD-1-Fc at a subsaturated concentration on CHO cells stably expressing human PD-L1, antibody titrated, streptavidin R-PE detection
Procedure: as §2

[6] = molecular target: T5, recombinant human PD-L1-Fc protein (Origincell Therapeutics Co., Ltd.) (human, UniProt Q9NZQ7 19-238, limits assumed); assay: BLI (Octet RED384), biotinylated antigen on SA sensor, antibody in solution
T5 construct: Labeled with biotin (EZ-Link Sulfo-NHS-LC-Biotin) for the BLI assays; unlabeled in the phage ELISA; also called Human PD-L1-Fc-Biotin; not shown: Fc part
Procedure: as §1, with “The recombinant human PD-L1-Fc protein and the recombinant mouse PD-L1-Fc were labeled with biotin (EZ-Link Sulfo-NHS-LC-Biotin, Pierce, 21327). The” for “The”, “The” for “The AHC sensor was regenerated by glycine pulses and then reused. The”

[7] = molecular target: T6, recombinant mouse PD-L1-Fc protein (M5251, ACROBiosystems Inc.) (mouse, UniProt Q9EP73 19-238); assay: as above
T6 construct: Bought; Labeled with biotin for the BLI assays; unlabeled in the phage ELISA; also called Mouse PD-L1-Fc-Biotin; not shown: Fc part
Procedure: as §1, with “The recombinant human PD-L1-Fc protein and the recombinant mouse PD-L1-Fc were labeled with biotin (EZ-Link Sulfo-NHS-LC-Biotin, Pierce, 21327). The” for “The”, “The” for “The AHC sensor was regenerated by glycine pulses and then reused. The”

[8] = molecular target: T3, recombinant human PD-L1-His protein …; assay: BLI (Octet RED384), antibody on AHC sensor, PD-L1-His in solution; remark: listed apart in the source
[9] = molecular target: T2, mouse PD-L1 on CHO cells that stably …; assay: flow cytometry competition: biotin-labelled mouse PD-1-Fc at a subsaturated concentration on CHO cells stably expressing mouse PD-L1, antibody titrated, streptavidin R-PE detection; remark: listed apart in the source
Procedure: as §2

[10] = molecular target: T4, human PD-L1 on cells (CHO cells that …); assay: flow cytometry on CHO cells stably expressing human PD-L1, anti-human IgG-Fc DyLight 650 detection
Procedure: The mixture was mixed well and incubated at 4° C. for 1 hr. After cell washing, Goat F(ab)₂ Anti-Human IgG-Fc (DyLight 650) (ab98593, Abcam) was added and incubated at 4° C. for 30 min. After cell washing, the fluorescence intensity was detected by a flow cytometer (Intellicyt iQue Screener).

[11] = molecular target: T4, human PD-L1 on cells (CHO cells that …); assay: flow cytometry competition: biotin-labelled human PD-1-Fc at a subsaturated concentration on CHO cells stably expressing human PD-L1, antibody titrated, streptavidin R-PE detection; remark: listed apart in the source
Procedure: as §2

[12] = molecular target: T2, mouse PD-L1 on CHO cells that stably …; assay: flow cytometry on CHO cells stably expressing mouse PD-L1, anti-human IgG-Fc DyLight 650 detection
Procedure: The mixture was mixed well and incubated at 4° C. for 1 hr. After cell washing, Goat F(ab′)₂ Anti-Human IgG-Fc (DyLight 650) (ab98593) was added and incubated at 4° C. for 30 min. After cell washing, the fluorescence intensity was detected by a flow cytometer (Intellicyt iQue Screener).

T4 sequence (Q9NZQ7 19-290): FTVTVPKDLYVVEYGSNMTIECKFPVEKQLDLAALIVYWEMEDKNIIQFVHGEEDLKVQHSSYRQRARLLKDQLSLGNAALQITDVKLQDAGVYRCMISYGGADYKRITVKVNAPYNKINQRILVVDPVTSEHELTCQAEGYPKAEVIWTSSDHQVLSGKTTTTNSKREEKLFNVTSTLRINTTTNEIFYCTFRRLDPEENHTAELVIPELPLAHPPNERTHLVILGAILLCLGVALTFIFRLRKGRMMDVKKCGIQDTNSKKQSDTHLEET
T3 sequence (Q9NZQ7 19-238 limits assumed): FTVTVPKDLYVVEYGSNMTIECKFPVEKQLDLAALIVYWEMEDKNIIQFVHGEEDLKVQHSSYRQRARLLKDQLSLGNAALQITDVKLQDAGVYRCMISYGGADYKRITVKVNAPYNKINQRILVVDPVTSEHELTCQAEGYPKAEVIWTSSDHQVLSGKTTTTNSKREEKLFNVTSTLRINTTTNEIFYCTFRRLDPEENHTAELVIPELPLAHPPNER
T5 sequence (Q9NZQ7 19-238 limits assumed): as above
T2 sequence (Q9EP73 19-290): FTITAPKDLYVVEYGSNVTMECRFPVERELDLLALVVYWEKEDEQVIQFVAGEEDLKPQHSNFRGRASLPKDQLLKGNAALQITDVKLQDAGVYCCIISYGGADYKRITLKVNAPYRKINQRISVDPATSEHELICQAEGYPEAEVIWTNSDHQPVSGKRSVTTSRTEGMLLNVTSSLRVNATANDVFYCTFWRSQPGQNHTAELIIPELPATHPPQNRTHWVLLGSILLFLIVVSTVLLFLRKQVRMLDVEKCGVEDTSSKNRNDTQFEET
T6 sequence (Q9EP73 19-238 limits assumed): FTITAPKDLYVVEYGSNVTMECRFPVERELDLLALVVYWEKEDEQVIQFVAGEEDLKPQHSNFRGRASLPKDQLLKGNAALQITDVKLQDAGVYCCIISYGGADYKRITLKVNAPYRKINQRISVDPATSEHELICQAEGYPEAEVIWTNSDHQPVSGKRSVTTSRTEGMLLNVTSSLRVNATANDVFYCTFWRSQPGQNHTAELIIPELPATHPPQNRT

Kd [1]: 1.64 nM
koff [1]: 0.000147 s⁻¹
kon [1]: 89900 M⁻¹ s⁻¹
IC50 (read off the curve) [2]: ~5 nM
Kd [3]: 0.517 nM
koff [3]: 0.000275 s⁻¹
kon [3]: 532000 M⁻¹ s⁻¹
EC50 (read off the curve) [4]: ~1 nM
IC50 (read off the curve) [5]: ~2 nM
B1: anti-PD-L1/CD137 bispecific antibody YN-051 (bispecific antibody, human IgG1, lambda, N297A)
heavy: not shown
light: QSALTQPASVSGSPGQSITISCTGTVSEVGGYNEVSWYQQHPGKAPKLMIYGNSNRPSGVSNRFSGSKSGNTASLTISGLQAEDEADYYCQSYDSSLSGTVFGGGTKLTVLGQPKAAPSVTLFPPSSEELQANKATLVCLISDFYPGAVTVAWKADSSPVKAGVETTTPSKQSNNKYAASSYLSLTPEQWKSHRSYSCQVTHEGSTVEKTVAPTECS
notes: First polypeptide (built from the YN-035 heavy chain and the YN-006 heavy and light chain genes) and second polypeptide (= YN-035 light chain); SDS-PAGE: about 200 kDa non-reduced, about 75 and 25 kDa reduced

Kd [6]: 0.525 nM
koff [6]: 0.000592 s⁻¹
kon [6]: 1.13e+06 M⁻¹ s⁻¹
Kd [7]: 1.34 nM
koff [7]: 0.00109 s⁻¹
kon [7]: 810000 M⁻¹ s⁻¹
B2: anti-PD-L1/CD137 bispecific antibody YN-007 (bispecific antibody)
heavy: not shown
light: B1 light with V26S, E28D, E34Y, T100S
notes: First polypeptide (built from the YN-003 heavy chain and the YN-006 heavy and light chain genes) and second polypeptide (= YN-003 light chain); SDS-PAGE: about 200 kDa non-reduced, about 75 and 25 kDa reduced

Kd [1]: 2.08 nM
koff [1]: 0.000174 s⁻¹
kon [1]: 83700 M⁻¹ s⁻¹
IC50 (read off the curve) [2]: ~5 nM
Kd [3]: 0.572 nM
koff [3]: 0.000257 s⁻¹
kon [3]: 448000 M⁻¹ s⁻¹
EC50 (read off the curve) [4]: ~2 nM
IC50 (read off the curve) [5]: ~3 nM
B3: anti-PD-L1/CD137 bispecific antibody YN-052 (bispecific antibody, human IgG1, lambda, N297A)
heavy: not shown
light: B1 light
notes: First polypeptide (built from the YN-036 heavy chain and the YN-006 heavy and light chain genes) and second polypeptide (= YN-036 light chain); SDS-PAGE: about 200 kDa non-reduced, about 75 and 25 kDa reduced

Kd [8]: 0.485 nM
koff [8]: 0.000173 s⁻¹
kon [8]: 356000 M⁻¹ s⁻¹
IC50 (read off the curve) [9]: ~4 nM
EC50 (read off the curve) [10]: 3 to 4 nM
IC50 (read off the curve) [11]: ~3 nM
EC50 (read off the curve) [12]: ~6 nM
B4: PD-L1 antibody YN-039 (antibody, human IgG1, lambda, V domains shown)
VH: QVQLVQSGAEVKKPGSSVKVSCKASRGPFSTYAISWVRQAPGQGLEWMGRIIPILGIANYAQKFQGRVTITADKSTSTAYMELSSLRSEDTAVYYCARTMGEYSYGNYDYWGQGTLVTVSS
VL: QSALTQPASVSGSPGQSITISCTGTVSDVGGYNEVSWYQQHPGKAPKLMIYENSIRPSGVSHRFSGSKSGNTASLTISGLQAEDEADYYCQSYDSSLSGTVFGGGTKLTVLG
notes: full-length IgG1,lambda

Kd [8]: 0.447 nM
koff [8]: 0.000156 s⁻¹
kon [8]: 350000 M⁻¹ s⁻¹
IC50 (read off the curve) [9]: ~4 nM
EC50 (read off the curve) [10]: 3 to 4 nM
IC50 (read off the curve) [11]: ~3 nM
EC50 (read off the curve) [12]: ~6 nM
B5: PD-L1 antibody YN-038 (antibody, human IgG1, lambda, V domains shown)
VH: B4 VH
VL: B4 VL with V26R
notes: full-length IgG1,lambda

Kd [8]: 0.382 nM
koff [8]: 0.000136 s⁻¹
kon [8]: 355000 M⁻¹ s⁻¹
IC50 (read off the curve) [9]: ~4 nM
EC50 (read off the curve) [10]: 3 to 4 nM
IC50 (read off the curve) [11]: ~3 nM
EC50 (read off the curve) [12]: ~6 nM
B6: PD-L1 antibody YN-037 (antibody, human IgG1, lambda, V domains shown)
VH: B4 VH
VL: B4 VL with V26S, D28S, N33R
notes: full-length IgG1,lambda
